Source: paper PMC9365671
Each block holds one binder with its values, some of them ahead of it.

Tests used:
Conditions in all cases: remark: other sources report otherwise
[1] = molecular target: T1, full-length human KIF5B-mScarlet-StrepII (human), P33176; test: SEC-MALS; purified full-length KIF5 alone; BioSep SEC-s4000 column, GF150 buffer (25 mM HEPES-KOH, 150 mM KCl, 2 mM MgCl2)
T1 chain: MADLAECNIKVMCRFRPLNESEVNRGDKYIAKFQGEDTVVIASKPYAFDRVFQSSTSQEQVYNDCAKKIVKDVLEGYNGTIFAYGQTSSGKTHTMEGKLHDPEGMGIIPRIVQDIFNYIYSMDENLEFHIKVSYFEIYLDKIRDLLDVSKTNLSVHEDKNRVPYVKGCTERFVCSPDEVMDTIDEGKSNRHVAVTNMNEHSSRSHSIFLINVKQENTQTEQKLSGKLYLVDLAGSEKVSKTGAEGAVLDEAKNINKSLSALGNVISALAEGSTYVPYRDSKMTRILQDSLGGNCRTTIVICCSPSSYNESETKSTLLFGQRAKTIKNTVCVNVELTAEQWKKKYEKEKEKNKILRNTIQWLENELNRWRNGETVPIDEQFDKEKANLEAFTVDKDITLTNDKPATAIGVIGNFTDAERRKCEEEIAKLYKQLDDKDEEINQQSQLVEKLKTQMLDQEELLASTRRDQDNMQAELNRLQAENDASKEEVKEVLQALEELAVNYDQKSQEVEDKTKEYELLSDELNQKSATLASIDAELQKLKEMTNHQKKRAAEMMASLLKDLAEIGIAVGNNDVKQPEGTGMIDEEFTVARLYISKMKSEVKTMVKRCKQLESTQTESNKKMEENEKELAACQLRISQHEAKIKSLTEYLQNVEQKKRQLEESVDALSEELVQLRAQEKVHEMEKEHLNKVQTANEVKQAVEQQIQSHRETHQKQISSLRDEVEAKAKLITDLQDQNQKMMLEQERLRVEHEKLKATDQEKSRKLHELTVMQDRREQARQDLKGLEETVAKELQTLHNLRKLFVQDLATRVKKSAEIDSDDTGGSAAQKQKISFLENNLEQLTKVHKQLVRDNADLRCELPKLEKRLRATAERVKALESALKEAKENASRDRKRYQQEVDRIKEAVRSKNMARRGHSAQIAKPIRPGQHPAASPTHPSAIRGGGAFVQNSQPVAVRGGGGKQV

[2] = molecular target: T2, full-length human KIF5A-mScarlet-StrepII (human), Q12840; test: as above
T2 chain: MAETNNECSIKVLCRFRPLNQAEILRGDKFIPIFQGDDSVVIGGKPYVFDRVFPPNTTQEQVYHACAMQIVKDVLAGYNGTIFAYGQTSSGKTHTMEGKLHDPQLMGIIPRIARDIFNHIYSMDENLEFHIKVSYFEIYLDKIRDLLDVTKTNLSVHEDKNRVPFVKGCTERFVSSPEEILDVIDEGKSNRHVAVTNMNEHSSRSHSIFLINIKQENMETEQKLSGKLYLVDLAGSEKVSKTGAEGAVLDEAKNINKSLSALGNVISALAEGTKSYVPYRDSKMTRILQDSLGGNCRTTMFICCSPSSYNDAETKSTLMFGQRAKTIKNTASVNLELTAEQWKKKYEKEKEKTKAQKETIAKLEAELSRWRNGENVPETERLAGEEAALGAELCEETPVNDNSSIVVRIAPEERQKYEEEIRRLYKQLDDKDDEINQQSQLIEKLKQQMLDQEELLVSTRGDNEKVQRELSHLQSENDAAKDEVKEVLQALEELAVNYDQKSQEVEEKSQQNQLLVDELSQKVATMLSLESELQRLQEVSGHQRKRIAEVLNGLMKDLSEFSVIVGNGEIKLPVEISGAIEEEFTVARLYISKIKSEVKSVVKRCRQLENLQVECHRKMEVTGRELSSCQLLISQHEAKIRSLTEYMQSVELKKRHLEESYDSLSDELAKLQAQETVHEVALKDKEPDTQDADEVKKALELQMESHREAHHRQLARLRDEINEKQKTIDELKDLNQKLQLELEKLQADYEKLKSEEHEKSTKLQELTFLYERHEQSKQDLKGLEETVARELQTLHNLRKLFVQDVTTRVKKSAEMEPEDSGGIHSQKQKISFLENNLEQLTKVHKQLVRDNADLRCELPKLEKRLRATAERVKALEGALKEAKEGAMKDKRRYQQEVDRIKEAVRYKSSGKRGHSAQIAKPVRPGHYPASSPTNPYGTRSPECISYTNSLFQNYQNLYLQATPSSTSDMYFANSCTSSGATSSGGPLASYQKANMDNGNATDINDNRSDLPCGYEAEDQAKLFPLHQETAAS

[3] = molecular target: T2, full-length human …; test: single-molecule fluorescence brightness (TIRF microscopy); brightness of motile KIF5A-mScarlet molecules on microtubules, ATP

stoichiometry N [1]: 2
B1: full-length human KIF5B-mScarlet-StrepII, P33176 1-963 (natural protein)
chain: T1 chain

stoichiometry N [2]: 4 | stoichiometry N [3]: 4
B2: full-length human KIF5A-mScarlet-StrepII, Q12840 1-1032 (natural protein)
chain: T2 chain
